According to US20230382979A1 (ADAPTIVE BIOTECHNOLOGIES, published 2023):
Substitutions are numbered along the chain they refer to.

B1: antibody 941 (antibody, V domains shown)
VH: QVQLVQSGAEVKKPGSSVKVSCKASGGTFSNSAINWVRQAPGQGLEWMGGIIPLFGAADYAQKFQARVTITADKSTTTSYMELSSLRSEDTAVYYCARDTLEHDDVWGNFRLSLPLSFWGQGTLVTVSS
VL: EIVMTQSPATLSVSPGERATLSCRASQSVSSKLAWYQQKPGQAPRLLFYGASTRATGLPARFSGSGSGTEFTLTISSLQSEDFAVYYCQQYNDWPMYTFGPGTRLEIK
B2: antibody 935 (antibody, V domains shown)
VH: EVQLVESGGGLVQPGGSLRLSCAASGFTVSSNYMSWVRQAPGKGLEWVSVIYSGGSTFYADSVKGRFTISRDNSRNTLYLQMNSLRAEDTAVYYCARDWGEFFFDFWGQGALVTVSS
VL: EIVLTQSPGTLSLSPGERATLSCRASQTISSSYLAWYQQKPGQAPRLLISGASSRATGIPDRFSGSGSGTDFTLTISRLEPEDFAVYYCQQYGSSPRTFGQGTNVEIK
B3: antibody 1439 (antibody, V domains shown)
VH: QVQLQESGPGLVKPSETLSLTCTVSGDSISTYYWSWIRQPPGKGLEWIGYIHYSGSTNYNPSLKSRVAVSVDTSKNQFSLKLSSVTAADTAVYYCARGGGVFGVVINFDYWGQGILVTVSS
VL: NFMLTQPYSVSESPGKTVTISCTRSSGSIASNYVQWYQQRPGSAPTTVIYEDNQRPSGVPDRFSGSIDSSSNSASLTISGLKTEDEADYYCQSRDSSNPVVFGGGTKLTVL
B4: antibody 2025 (antibody, V domains shown)
VH: QVQLVQSGAEVKKPGASVKVSCKVSGYTLIELSMHWVRQAPGKGLEWMGGFDPEDVETIYAQKFQGRVTMTEDTSTDTAYMELSSLRSEDTAVYYCATAYAVQWRGMIGYWGQGTLVTVSS
VL: QSALTQPASVSGSPGQSITISCTGTSSDVGSYNLVSWYQQHPGKAPKLMIYEVSKRPSGVSNRFSGSKSGNTASLTISGLQAEDEADYYCSSYAGSSTFSYVFGTGTKVTVL
B5: antibody 1679 (antibody, V domains shown)
VH: QITLKESGPTLVKPTQTLTLTCTFSGFSLSTVGVGVAWIRQPPGKALEWLALIYWDDDKRYSPSLKSRLTITKDTSKNHVVLTMTNMDPVDTATYYCAHHIIAALVDVWGKGTTVTVSS
VL: QSALTQPASVSGSPGQSITISCTGTSSDVGGNNYVSWYQHHPGEAPKLMIYEVSNRPSGVSNRFSGSKSGNTASLTISGLQAEDEADYYCSSYTTSSTLVVFGGGSKLTVL
B6: antibody 1231 (antibody, V domains shown)
VH: QVQLVQSGSELKKPGASVKVSCTGYGYTFTSYAMNWVRQAPGQGLEWMGWINTNTGHPAYAQGFTGRFVFSLDSSVSTAYLQISSLKAEDTAVYYCATTIRAGGYFDFWGQGTLVTVSS
VL: DIQLTQSPSFLSASVGDRVTITCRASQGISSYLAWFQQKPGKAPKLLIYVVSILQSGVPSRFSGSGSGTEFTLTISSLQPEDFATYYCQQLNSYPYTFGQGTKLEIK
B7: antibody 767 (antibody, V domains shown)
VH: QVQVVQSGAEVKKPGASVKVSCTASGHTFTGYAIHWVRQAPGQRLEWMGLINAGGIYRTYSQRFQGRVTITRDTSASTAYMELTGLTSEDTAVYYCARANYGSGSFSDHWGQGTLVTVSS
VL: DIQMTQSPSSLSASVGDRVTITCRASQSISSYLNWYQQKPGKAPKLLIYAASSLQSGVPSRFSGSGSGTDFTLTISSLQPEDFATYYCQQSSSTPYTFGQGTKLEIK
B8: antibody 1213 (antibody, V domains shown)
VH: QMQLVQSGAEVKKTGSSVKVSCEASENTFTNRYLHWVRQAPGQALEWMGWITPFQGNTHYAQKFQDRVTITRDRSMNTVYMELSSLRSEDTAIYYCASGGQYGPGSYYFEFWGQGTLVTVSS
VL: EIVMTQSPATLSVSPGERATLSCRASQSIRNNLAWYRQKPGQAPRLLIYGASTRAAGVPARFSGSGSGTEFTLTISSLQSEDFAVYYCQQYINWPPLTFGGGTKVEIK
B9: antibody 1227 (antibody, V domains shown)
VH: B8 VH with E26G, N27Y, H59N, R74M, I93K, P104A, F109L, F111D
VL: B8 VL with I29V, N31S, A56T, K104R
B10: antibody 2432 (antibody, V domains shown)
VH: QVQLVQSGAEVKKPGSSVKVSCKASGDTFSSYAISWVRQAPGQGLEWLGGIIPIFGSADYAQKFQGRVTITADEFTSTAYMELSSLRSEDTAVYFCAREKYGDYGEGPLYNFDYWGQGTLVTVSS
VL: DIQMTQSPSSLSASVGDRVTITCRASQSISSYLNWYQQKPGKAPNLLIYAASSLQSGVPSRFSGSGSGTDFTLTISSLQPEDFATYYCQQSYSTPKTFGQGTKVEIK
B11: antibody 937 (antibody, V domains shown)
VH: EVQLVESGGGLVQPGRSLRLSCAASGFTFDDYAMHWVRQAPGKGLEWVSGISWNSGSIGYADSVKGRFTISRDNAKNSLYLQMNSLKPEDTALYYCAKSTTSCYNGSQCPTKRPKPLESWGQGTLVIVSA
VL: DIQMTQSPSTLSAFVGDRVTITCRASQSINNWLAWYQQKPGEVPKLLIYKASSLENGVPSRFSGSGFGTEFTLTISSLQPDDFAIYYCQQYYSHSHTFGQGTKLEIK
B12: antibody 2646 (antibody, V domains shown)
VH: QVQLVQSGAEVKKPGASVKVSCKVSGYTLTELSIHWVRQAPGKGLEWMGGFDPEDAETIYAQKFQGRVTMTEDTSTDTAYMELSSLRSEDTAVYYCATATAVAGTVFNYQYHYGLDFWGQGTTVTVSS
VL: not shown
B13: antibody 2598 (antibody, V domains shown)
VH: QVQLQESGPGLVKPSGTLSLTCVVSGGSISSSNWWSWVRQPPGKGLEWIGETFHSGSFNYNPSLKSRVTISVDKSKNQFSLKLSSVTAADTAIYYCATTRVGYEGHFYYYGMDVWGQGTTVTVSS
VL: DIQMTQSPSSVSASVGDRVTITCRASQGISSWLAWYQQKPGKAPKLLIYAASSLQSGVPSRFSGSGSGTDFTLTISSLQPEDFATYYCQQANRFPWTFGQGTKVEIK
B14: antibody 1671 (antibody, V domains shown)
VH: EVQLVESGGGLVKPGGSLRLSCAASGFTFSTYNMNWVRQAPGKGLEWVSSISSNSNYIYYADSMKGRFTISRDNAKNSLYLQMNSLRAEDTAVYYCARDMDPLPYFDWLLYAFDVWGQGTMVTVSS
VL: B2 VL with T28S, I29V, S31G, S50Y, S95P, P96I, R97F, Q101P, N104K, E106D
B15: antibody 2080 (antibody, V domains shown)
VH: QVQLQQWGAGLLKPSETLSLTCAVYGGSFSGYYWSWIRQPPGKGLEWIGRINDIGSTDYNPSLKSRVTISVDTSKNQFSLKLTSVTAADTAVYYCAREPFDSEGTFDYWGQGTLVIVSS
VL: DIQMTQPPSTLSASVGDRVTITCRASQSISRWLAWYRQKPGKAPKLLIYDASSLQSGVPSRFSGSGSGTEFTLTISSLQPDDLATYYCQQYNTYPYTFGQGTKLEIK
B16: antibody 2606 (antibody, V domains shown)
VH: EVQLVESGGGLVKPGGSLRLSCAASGFTFSSYSMNWVRQAPGKGLEWVSSITSSSGYMYYADSVKGRFTISRDNAKNSLYLQLNSLRAEDTAVYYCAKDSAFDLWEVRSYYYVMDVWGQGTTVTVSS
VL: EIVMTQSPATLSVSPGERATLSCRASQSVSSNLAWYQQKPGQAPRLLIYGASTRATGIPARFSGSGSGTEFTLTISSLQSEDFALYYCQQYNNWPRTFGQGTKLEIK

These binders were tested against SARS-CoV-2 spike protein, B1.1.7 (alpha variant), borne on lentiviral pseudovirus (SARS-CoV-2, B1.1.7) (assay: cell-based or functional assay).
With B1 the “Pseudo Neut, B1.1.7 IC50 (pM)” value was 533 pM. B2 was tested, and the “Pseudo Neut, B1.1.7 IC50 (pM)” value was 1170 pM.

The binders below were run against T1, Receptor-binding domain (RBD) of the SARS-CoV-2 spike protein, WA01/2020 strain (SARS-CoV-2, WA01/2020 strain, UniProt P0DTC2 319-541) (assay: SPR (Biacore 8K), antigen immobilized, antibody injected).
Work on B1 yielded a Kd of 62 pM. B3 was tested, and the Kd was 17.6 pM. B2 gave a Kd of 406 pM. B4 gave a Kd of 7130 pM. B5 gave a Kd of 1010 pM. For B6, the Kd was 2540 pM. For B7, the Kd was 24300 pM. Work on B8 yielded a Kd of 1720 pM. In the case of B9, the Kd is reported as 2740 pM.

The binders below were run against T1, Receptor-binding domain (RBD) of the … (assay: ELISA, antibody blocks RBD binding to human ACE2).
For B1, the IC50 was 960 pM. For B3, the IC50 was 117 pM. B2 showed an IC50 of 830 pM. For B5, the IC50 was 70 pM. Binder B6 has an IC50 of 3690 pM. B7 showed an IC50 of 20900 pM. B8 was tested, and the IC50 was 7740 pM. In the case of B9, the IC50 is reported as 14500 pM.

What follows are binders tested against T1, Receptor-binding domain (RBD) of the … (assay: dose-response ELISA on coated antigen).
B1 showed an EC50 of 24 pM. B3 was tested, and the EC50 was 9.9 pM. Binder B2 has an EC50 of 24 pM. In the case of B4, the EC50 is reported as 113 pM. For B5, the EC50 was 3 pM. Work on B6 yielded an EC50 of 18 pM. With B7 the EC50 was 3470 pM. B8 gave an EC50 of 51 pM. Binder B9 has an EC50 of 107 pM.

The binders below were run against SARS-CoV-2 spike protein on live virus, strain USA-WA1/2020 (SARS-CoV-2, WA01/2020 strain, UniProt P0DTC2 14-1273) (assay: cell-based or functional assay).
In the case of B10, the “Live Neut, WA1/2020 IC50 (pM)” value is reported as 26 pM. In the case of B11, the “Live Neut, WA1/2020 IC50 (pM)” value is reported as 140 pM. For B1, the “Live Neut, WA1/2020 IC50 (pM)” value was 24 pM. With B12 the “Live Neut, WA1/2020 IC50 (pM)” value was 19 pM. With B13 the “Live Neut, WA1/2020 IC50 (pM)” value was 586 pM. With B2 the “Live Neut, WA1/2020 IC50 (pM)” value was 64 pM. B14 was tested, and the “Live Neut, WA1/2020 IC50 (pM)” value was 9 pM. For B15, the “Live Neut, WA1/2020 IC50 (pM)” value was 169 pM. With B4 the “Live Neut, WA1/2020 IC50 (pM)” value was 118 pM. B5 was tested, and the “Live Neut, WA1/2020 IC50 (pM)” value was 19 pM. In the case of B6, the “Live Neut, WA1/2020 IC50 (pM)” value is reported as 9510 pM. For B7, the “Live Neut, WA1/2020 IC50 (pM)” value was 1730 pM. With B16 the “Live Neut, WA1/2020 IC50 (pM)” value was 474 pM. In the case of B8, the “Live Neut, WA1/2020 IC50 (pM)” value is reported as 2590 pM. With B9 the “Live Neut, WA1/2020 IC50 (pM)” value was 1490 pM.
